{
  "source": "patent US20130059773",
  "biological_target": "recombinant PCNA (human PCNA cDNA, produced in E. coli from plasmid PETPCNA, purified)",
  "data": [
    {"protein": "procaspase-9 (protein) MDEADRRLLRRCRLRLVEELQVDQLWDALLSRELFRPHMIEDIQRAGSGSRRDQARQLIIDLETRGSQALPLFISCLEDTGQDMLASFLRTNRQAAKLSKPTLENLTPVVLRPEIRKPEVLRPETPRPVDIGSGGFGDVGALESLRGNADLAYILSMEPCGHCLIINNVNFCRESGLRTRTGSNIDCEKLRRRFSSLHFMVEVKGDLTAKKMVLALLELAQQDHGALDCCVVVILSHGCQASHLQFPGAVYGTDGCPVSVEKIVNIFNGTSCPSLGGKPKLFFIQACGGEQKDHGFEVASTSPEDESPGSNPEPDATPFQEGLRTFDQLDAISSLPTPSDIFVSYSTFPGFVSWRDPKSGSWYVETLDDIFEQWAHSEDLQSLLLRVANAVSVKGIYKQMPGCFNFLRKKLFFKTS", "values": [
      {"measurement": "procaspase-9 cleavage in an in vitro activation assay (neutrophil cytosol, cytochrome c, dATP; western blot of caspase-9)", "value": "when purified PCNA was added to the mixture, procaspase-9 cleavage was delayed, with persistent procaspase-9 (47 kDa) and diminished 37-kDa fragment detection"}
    ]}
  ]
}
